Measured values as given in publication PMC7725843, “Structural and biochemical analyses of an aminoglycoside 2′-N-acetyltransferase from Mycolicibacterium smegmatis” (Scientific Reports, 2020).

Key:
Assay in all cases: purified protein
Type in all cases: biochemical, Mycolicibacterium smegmatis
[1] = tested on: NC[C@H]1O[C@H](O[C@H]2[C@H](O)[C@@H](O[C@H]3O[C@H](CO)[C@@H](O)[C@H](N)[C@H]3O)[C@H](N)C[C@@H]2N)[C@H](O)[C@@H](O)[C@@H]1O; details: 300 μM acetyl-CoA, 50 mM MES pH 6.5, 200 μM DTNB, 25 °C
[2] = tested on: NC[C@@H]1O[C@H](O[C@H]2[C@@H](O)[C@H](O[C@@H]3[C@@H](O)[C@H](N)C[C@H](N)[C@H]3O[C@H]3O[C@H](CO)[C@@H](O)[C@H](O)[C@H]3N)O[C@@H]2CO)[C@H](N)[C@@H](O)[C@@H]1O; details: 300 μM acetyl-CoA, 50 mM MES pH 6.5, 200 μM DTNB, 25 °C
[3] = tested on: CC(=O)SCCNC(=O)CCNC(=O)[C@H](O)C(C)(C)COP(=O)(O)OP(=O)(O)OC[C@H]1O[C@@H](n2cnc3c(N)ncnc32)[C@H](O)[C@@H]1OP(=O)(O)O; details: aminoglycoside co-substrate not told, 50 mM MES pH 6.5, 200 μM DTNB, 25 °C
[4] = tested on: NC[C@H]1O[C@H](O[C@H]2[C@H](O)[C@@H](O[C@H]3O[C@H](CO)[C@@H](O)[C@H](N)[C@H]3O)[C@H](N)C[C@@H]2N)[C@H](N)C[C@@H]1O; details: 300 μM acetyl-CoA, 50 mM MES pH 6.5, 200 μM DTNB, 25 °C

AAC(2′)-Id (Mycolicibacterium smegmatis MC2 155)
Km [1]: (1.67 ± 0.84) × 10^2 μM | kcat [1]: 0.13 ± 0.03 s⁻¹ | kcat/Km [1]: 817 ± 620 M⁻¹ s⁻¹ | Km [2]: (1.04 ± 0.14) × 10^2 μM | kcat [2]: 1.08 ± 0.06 s⁻¹ | kcat/Km [2]: 10400 ± 2100 M⁻¹ s⁻¹ | kcat [3]: 0.34 ± 0.03 s⁻¹ | kcat/Km [3]: 5670 ± 1620 M⁻¹ s⁻¹ | Km [4]: (1.86 ± 0.10) × 10^2 μM | kcat [4]: 3.34 ± 0.1 s⁻¹ | kcat/Km [4]: 18000 ± 1600 M⁻¹ s⁻¹
